Laboratory results from the supplement of paper PMC12764529.
± gives the half width of the 95% confidence interval.

Key:
[1] = folding stability dG unfold from trypsin proteolysis; higher = more stable
Outline: (§1)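 Digests were run with trypsin and chymotrypsin at 11 concentrations in threefold dilutions, plus a no-protease condition, on designed mini-proteins in a PA-tagged cDNA display construct. The mini-proteins were under 80 residues, had no cysteine, and were kept only when AlphaFold2 dimer inter-PAE was above 15. After sequencing, Bayesian fitting of the counts gave K50, from which unfolding free energy was derived against a sequence-predicted unfolded-state K50 and a shared folded-state K50, per protease or combined.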

[2] = folding stability dG unfold from chymotrypsin proteolysis; higher = more stable
Outline: as §1

[3] = folding stability dG unfold (combined trypsin and chymotrypsin); higher = more stable
Outline: as §1

Sequence	folding stability dG unfold [1]	folding stability dG unfold [2]	folding stability dG unfold [3]
STMTLKELKERFPGFPPEMIEEIAERAENDPPGEEVEIYIRFPNGYPIYITVTKPDTVTIQFIPPGEPVYSA [r9_1024_TrROS]	1.23 ± 0.089 kcal/mol	1.01 ± 0.22 kcal/mol	1.24 ± 0.26 kcal/mol
SVEEFRELLPDAVIEAEPLSPDRLLIRLYVPEDPEKLNPLAERVRELAEEIERETGLPVLIEIIPVPPESSA [r9_1099_TrMRF]	1.53 ± 0.033 kcal/mol	1.27 ± 0.014 kcal/mol	1.41 ± 0.028 kcal/mol
SVKTSSSMAPPDRIVLKITDPETDKVTTITVPLDLPEDEPVAVHDPEAPSERTVAEIKALAEAGKSVSGLSA [r9_250_JUSTAS]	-0.176 ± 0.16 kcal/mol	-0.55 ± 0.35 kcal/mol	-0.142 ± 0.18 kcal/mol
SVPIALPGVPPGFSLEEVAALITEKIKALGYTLKDIKVTPHPDNTVTITITVEKGEKTVKKVTTEINPPVSA [r9_953_JUSTAS]	1.56 ± 0.15 kcal/mol	2.95 ± 0.097 kcal/mol	2.56 ± 0.36 kcal/mol
SVRIHGPDGQWFPVDDIEFDPNNNKFTFKFPGGKHKFPLPPGWQIEIDKDNAWIRVRPMPPPPPEDKEAKSA [r9_551_TrROS]	2.88 ± 0.24 kcal/mol	2.25 ± 0.061 kcal/mol	2.68 ± 0.34 kcal/mol
SVSSKISKVVSETVEDDKRTVTIEVNVPSPVVEIYDSSGKVIKTVPLGKKTTITVTTDPKGTSVSVKVLNSA [r9_917_JUSTAS]	0.46 ± 0.12 kcal/mol	0.967 ± 0.044 kcal/mol	0.697 ± 0.11 kcal/mol
SVTITKDGNKITVTLSVNGPFTLQVNKESSTSSFSVPADESATLTIDVPNTTYKVVVEKPGQPVSTYDLLSA [r9_411_JUSTAS]	1.8 ± 0.12 kcal/mol	2.08 ± 0.17 kcal/mol	1.97 ± 0.23 kcal/mol
SVTRDPDGKITVDVDVRRTPDGFYYVEVKLQLKDGKPIFPVPAPVKNPEDGVKRMKEFAETFAKEFLKKWSA [r9_739_TrROS]	1.35 ± 0.058 kcal/mol	2.42 ± 0.087 kcal/mol	2.04 ± 0.15 kcal/mol
SVVRLPNGEWFEVDGRLVRVTVDEETGEIVDVEVYEVTVEEPPPPPPPLEVTVTVEPDAPPGATITITVTSA [r9_90_TrROS_Hall]	1.8 ± 0.13 kcal/mol	1.48 ± 0.12 kcal/mol	1.5 ± 0.27 kcal/mol
SWIPVKEIAKYIAREFGMPKENLDNIEEVDPITVHPNPDGWVQVEATIRFRNPRNGKGHEMRIEIHVPKKSA [r9_230_TrROS]	1.66 ± 0.024 kcal/mol	2.22 ± 0.11 kcal/mol	1.96 ± 0.09 kcal/mol
SWKIEIPVLVKVDPGETMDEMKDQVVEIADMIAKYMQKQGGPIEVDVDVTPDPEEGYIFVTVEIEVPPGASA [r9_1161_TrROS]	1.03 ± 0.13 kcal/mol	2.9 ± 0.13 kcal/mol	2.39 ± 0.29 kcal/mol
SWLKLPPGQKVITFQFQYPLPPGQSADDLVDNMEKELREFFGPGVKIEVNVQWDPNNGYFRVSVTIVIPKSA [r9_657_TrROS]	1.86 ± 0.057 kcal/mol	1.21 ± 0.17 kcal/mol	1.63 ± 0.2 kcal/mol
SWMLRIRNPDDGKTREIKLPNMPPTVQKDGWISITNPQFLNQLLDALPPDYKIDEVEFMPGGMHTMKVKPSA [r9_997_TrROS]	0.0269 ± 0.17 kcal/mol	-0.067 ± 0.32 kcal/mol	0.019 ± 0.12 kcal/mol
SWVEIPPDKIKDLMNRFQNGDWEEIVDLLKDLGFKNVTIEPQRNNGQRYFTIWVEHPDGPVIIEMPPSDISA [r9_783_TrROS]	2.39 ± 0.082 kcal/mol	2.87 ± 0.044 kcal/mol	2.72 ± 0.097 kcal/mol
SWYHIQFWLEGNSIEELMKWAKELAKQGNFEITKISNEHMHITIEIKLKPPPPPPPPPPKEEYDGDGKPKSA [r9_830_TrROS]	2.53 ± 0.56 kcal/mol	2.37 ± 0.19 kcal/mol	2.22 ± 0.46 kcal/mol
SYDHMRKWIKQAAQERGLKVTNIDIEPTPKTNTFKMSIEIPNGREINFEFQHDKNGGWQFTIQQIKNALKSA [r9_85_TrROS]	2.07 ± 0.084 kcal/mol	2.8 ± 0.039 kcal/mol	2.69 ± 0.2 kcal/mol
SYWIRITINGQTIMFPAEDADKLLGELQSNGWRIKITDIEPDPDDDWIMFKINIRPPKPPPPPPPDPDGKSA [r9_448_TrROS]	2 ± 0.11 kcal/mol	3.47 ± 0.041 kcal/mol	3.17 ± 0.34 kcal/mol
WMWVIKVRNPKNGKKRTIMIPDDPERAKNQIKNLKKQDPNMTVEIIGIKEPEVRKAAKEAGLDDIEVEPMPS [r1_114_TrROS]	0.758 ± 0.091 kcal/mol	0.666 ± 0.34 kcal/mol	0.726 ± 0.31 kcal/mol
YKAKITSVSFIPGEGYIVFNVEVIGPDGIPATFPIVIKIEIEPEEPDPAPPVIKDPNGKVYNPIIPKWFDAS [r1_270_TrMRF]	1.5 ± 0.043 kcal/mol	2.38 ± 0.054 kcal/mol	2.13 ± 0.09 kcal/mol
YMVFIRIEVEDPKNGEEKAEIPIPIPIPPGDLKNMPPEDREKMIEEAKYFAEELAEEKGNVKIKPEIQWFES [r1_115_TrROS]	-0.246 ± 0.19 kcal/mol	-0.226 ± 0.66 kcal/mol	-0.0293 ± 0.23 kcal/mol
